The results in this text go back to article PMC10397247.

The target of one test is T1, 4H816-AA.
T1 chain: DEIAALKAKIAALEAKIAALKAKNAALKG
The test can be described thus: two-hybrid library CCmax.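 Also: natural log of median RNA to DNA barcode read ratio; higher means stronger binding.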

The target in a further test is T2, 4H87-AA.
T2 chain: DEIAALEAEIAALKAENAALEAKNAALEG
Kind of test: two-hybrid library CCmax.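 Also: natural log of median RNA to DNA barcode read ratio; higher means stronger binding.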 The settings on record: mean of both orientations.

The next test deals with T3, 4H2837-AA.
T3 chain: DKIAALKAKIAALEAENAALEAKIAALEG
The test can be described thus: two-hybrid library CCmax.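 Also: natural log of median RNA to DNA barcode read ratio; higher means stronger binding.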 To be noted: mean of both orientations.

The target in another test is T4, 4H566-AA.
T4 chain: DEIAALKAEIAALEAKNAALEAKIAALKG
Kind of test: two-hybrid library CCmax.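 Also: natural log of median RNA to DNA barcode read ratio; higher means stronger binding.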 To be noted: mean of both orientations.

In a further test the target is T5, 4H342-AA.
T5 chain: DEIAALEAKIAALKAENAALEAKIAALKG
Kind of test: two-hybrid library CCmax.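 Also: natural log of median RNA to DNA barcode read ratio; higher means stronger binding.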 To be noted: mean of both orientations.

A further test concerns the target T6, 4H605-AA.
T6 chain: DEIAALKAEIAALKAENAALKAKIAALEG
Kind of test: two-hybrid library CCmax.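 Also: natural log of median RNA to DNA barcode read ratio; higher means stronger binding.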 The settings on record: mean of both orientations.

Another test concerns the target T7, 4H678-AA.
T7 chain: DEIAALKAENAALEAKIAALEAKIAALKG
Kind of test: two-hybrid library CCmax. The settings on record: mean of both orientations.

Another test has as its target T8, 4H993-AA.
T8 chain: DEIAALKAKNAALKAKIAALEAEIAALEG
The test can be described thus: two-hybrid library CCmax. The settings on record: mean of both orientations.

Another test concerns the target T9, 4H3427-AA.
T9 chain: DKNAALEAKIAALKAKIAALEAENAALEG
Kind of test: two-hybrid library CCmax. The settings on record: mean of both orientations.

A further test concerns the target T10, 4H780-AA.
T10 chain: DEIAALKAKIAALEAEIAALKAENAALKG
The test can be described thus: two-hybrid library CCmax. To be noted: mean of both orientations.

Another test has as its target T11, 4H2944-AA.
T11 chain: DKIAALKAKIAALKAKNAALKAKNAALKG
Kind of test: two-hybrid library CCmax. The settings on record: mean of both orientations.

In a further test the target is T12, 4H3655-AA.
T12 chain: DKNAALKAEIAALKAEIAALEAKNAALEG
Kind of test: two-hybrid library CCmax. To be noted: mean of both orientations.

In a further test the target is T13, 4H3606-AA.
T13 chain: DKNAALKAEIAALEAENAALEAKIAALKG
Kind of test: two-hybrid library CCmax. To be noted: mean of both orientations.

In another test the target is T14, 4H454-AA.
T14 chain: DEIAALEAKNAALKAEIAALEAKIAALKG
Kind of test: two-hybrid library CCmax. To be noted: mean of both orientations.

A further test deals with T15, 4H2642-AA.
T15 chain: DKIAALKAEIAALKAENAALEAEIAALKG
Kind of test: two-hybrid library CCmax.

A further test addresses T16, 4H3343-AA.
T16 chain: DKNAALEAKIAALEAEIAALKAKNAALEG
Kind of test: two-hybrid library CCmax. To be noted: mean of both orientations.

A further test has as its target T17, 4H2949-AA.
T17 chain: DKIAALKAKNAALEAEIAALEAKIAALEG
The test can be described thus: two-hybrid library CCmax. The settings on record: mean of both orientations.

The target of a further test is T18, 4H3844-AA.
T18 chain: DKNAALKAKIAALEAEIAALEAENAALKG
The test can be described thus: two-hybrid library CCmax. The settings on record: mean of both orientations.

The next test concerns the target T19, 4H48-AA.
T19 chain: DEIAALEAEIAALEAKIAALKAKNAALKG
The test can be described thus: two-hybrid library CCmax. The settings on record: mean of both orientations.

For the next test, the target named is T20, 4H335-AA.
T20 chain: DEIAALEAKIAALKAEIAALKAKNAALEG
Kind of test: two-hybrid library CCmax. The settings on record: mean of both orientations.

The target in another test is T21, 4H2883-AA.
T21 chain: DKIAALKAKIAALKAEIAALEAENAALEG
The test can be described thus: two-hybrid library CCmax. To be noted: mean of both orientations.

A further test deals with T22, 4H3112-AA.
T22 chain: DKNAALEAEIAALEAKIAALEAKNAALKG
The test can be described thus: two-hybrid library CCmax. The settings on record: mean of both orientations.

The target in the next test is T23, 4H317-AA.
T23 chain: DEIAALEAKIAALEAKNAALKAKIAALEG
Kind of test: two-hybrid library CCmax. To be noted: mean of both orientations.

A further test concerns the target T24, 4H3921-AA.
T24 chain: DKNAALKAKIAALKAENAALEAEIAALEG
The test can be described thus: two-hybrid library CCmax. The settings on record: mean of both orientations.

Another test concerns the target T25, 4H3627-AA.
T25 chain: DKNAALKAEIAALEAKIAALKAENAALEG
The test can be described thus: two-hybrid library CCmax. The settings on record: mean of both orientations.

For another test, the target named is T26, 4H717-AA.
T26 chain: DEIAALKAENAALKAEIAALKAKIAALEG
Kind of test: two-hybrid library CCmax. To be noted: mean of both orientations.

The target of the next test is T27, 4H794-AA.
T27 chain: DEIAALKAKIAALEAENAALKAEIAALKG
Kind of test: two-hybrid library CCmax. The settings on record: mean of both orientations.

A further test addresses T28, 4H429-AA.
T28 chain: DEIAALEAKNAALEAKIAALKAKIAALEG
The test can be described thus: two-hybrid library CCmax. The settings on record: mean of both orientations.

The next test has as its target T29, 4H881-AA.
T29 chain: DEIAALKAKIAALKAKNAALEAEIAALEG
Kind of test: two-hybrid library CCmax. The settings on record: mean of both orientations.

The target in the next test is T30, 4H2754-AA.
T30 chain: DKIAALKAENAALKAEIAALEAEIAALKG
Kind of test: two-hybrid library CCmax. To be noted: mean of both orientations.

The next test deals with T31, 4H2729-AA.
T31 chain: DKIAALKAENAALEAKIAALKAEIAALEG
The test can be described thus: two-hybrid library CCmax. To be noted: mean of both orientations.

A further test has as its target T32, 4H906-AA.
T32 chain: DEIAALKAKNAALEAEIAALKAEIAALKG
The test can be described thus: two-hybrid library CCmax. To be noted: mean of both orientations.

In another test the target is T33, 4H918-bA.
T33 chain: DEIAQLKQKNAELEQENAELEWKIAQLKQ
The test can be described thus: two-hybrid library CCNG1.

The target of another test is T34, 4H855-bA.
T34 chain: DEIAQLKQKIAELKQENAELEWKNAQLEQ
Kind of test: two-hybrid library CCNG1.

The next test deals with T35, 4H908-bA.
T35 chain: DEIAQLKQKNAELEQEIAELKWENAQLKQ
The test can be described thus: two-hybrid library CCNG1.

The target in a further test is T36, 4H968-bA.
T36 chain: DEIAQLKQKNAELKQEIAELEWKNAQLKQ
The test can be described thus: two-hybrid library CCNG1.

The next test concerns the target T37, 4H883-bA.
T37 chain: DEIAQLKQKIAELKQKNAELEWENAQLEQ
The test can be described thus: two-hybrid library CCNG1.

The next test concerns the target T38, 4H953-bA.
T38 chain: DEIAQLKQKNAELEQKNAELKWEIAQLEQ
The test can be described thus: two-hybrid library CCNG1.

The target in another test is T39, 4H967-bA.
T39 chain: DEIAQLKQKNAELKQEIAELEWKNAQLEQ
The test can be described thus: two-hybrid library CCNG1.

Another test concerns the target T40, 4H797-bA.
T40 chain: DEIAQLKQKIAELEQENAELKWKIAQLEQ
The test can be described thus: two-hybrid library CCNG1.

B1: 4H816-AA (peptide)
chain: DEIAALKAKIAALEAKIAALKAKNAALKG
Take B1: the interaction score with 4H816-AA stood at 1.02; with 4H87-AA, 0.567.

B2: 4H2642-AA (peptide)
chain: DKIAALKAEIAALKAENAALEAEIAALKG
With B2, the interaction score was -1 in the test with 4H2837-AA; 1.3 in the test with 4H566-AA; 1.85 in the test with 4H342-AA; 1.36 in the test with 4H605-AA; -1.06 with 4H678-AA; 1.73 in the test with 4H993-AA. In addition, the interaction score with 4H3427-AA is -1.25; in the test with 4H780-AA, -1.24; in the test with 4H2944-AA it was 0.299; in the test with 4H3655-AA, -1.24; with 4H3606-AA, -0.298; in the test with 4H454-AA, 0.982. In addition, the interaction score in the test with 4H2642-AA was 2.07; in the test with 4H3343-AA, -1.7; in the test with 4H2949-AA, -0.263; with 4H3844-AA it was -1.28; with 4H48-AA, -0.661; in the test with 4H335-AA, -1.02. The interaction score was -0.642 in the test with 4H2883-AA; -1.11 with 4H3112-AA; 1.06 with 4H317-AA; -1.11 in the test with 4H3921-AA; -1.58 with 4H3627-AA; -1.13 in the test with 4H717-AA. The interaction score is 0.96 in the test with 4H794-AA; -0.542 in the test with 4H429-AA; 0.64 in the test with 4H881-AA; -1.08 in the test with 4H2754-AA; -0.868 with 4H2729-AA; -1.72 in the test with 4H906-AA.

B3: 4H797-bA (peptide)
chain: DEIAQLKQKIAELEQENAELKWKIAQLEQ
In the case of B3, the interaction score was 0.787 in the test with 4H918-bA; 0.572 in the test with 4H855-bA; -0.499 in the test with 4H908-bA; -1.67 with 4H968-bA; -0.129 with 4H883-bA; -0.848 with 4H953-bA. Besides, the interaction score is -0.372 with 4H967-bA and 0.406 in the test with 4H797-bA.
